Target: T1, OB-R (Homo sapiens, UniProt P48357)
T1 construct: After confirming via Western that the primary EEC and ESC and endometrial cell lines utilized herein had OB-R; endogenous in cells; host or cells: primary human EEC and ESC; Ishikawa (ECACC 9832301) and HES cell lines
T1 sequence (P48357 22-1165): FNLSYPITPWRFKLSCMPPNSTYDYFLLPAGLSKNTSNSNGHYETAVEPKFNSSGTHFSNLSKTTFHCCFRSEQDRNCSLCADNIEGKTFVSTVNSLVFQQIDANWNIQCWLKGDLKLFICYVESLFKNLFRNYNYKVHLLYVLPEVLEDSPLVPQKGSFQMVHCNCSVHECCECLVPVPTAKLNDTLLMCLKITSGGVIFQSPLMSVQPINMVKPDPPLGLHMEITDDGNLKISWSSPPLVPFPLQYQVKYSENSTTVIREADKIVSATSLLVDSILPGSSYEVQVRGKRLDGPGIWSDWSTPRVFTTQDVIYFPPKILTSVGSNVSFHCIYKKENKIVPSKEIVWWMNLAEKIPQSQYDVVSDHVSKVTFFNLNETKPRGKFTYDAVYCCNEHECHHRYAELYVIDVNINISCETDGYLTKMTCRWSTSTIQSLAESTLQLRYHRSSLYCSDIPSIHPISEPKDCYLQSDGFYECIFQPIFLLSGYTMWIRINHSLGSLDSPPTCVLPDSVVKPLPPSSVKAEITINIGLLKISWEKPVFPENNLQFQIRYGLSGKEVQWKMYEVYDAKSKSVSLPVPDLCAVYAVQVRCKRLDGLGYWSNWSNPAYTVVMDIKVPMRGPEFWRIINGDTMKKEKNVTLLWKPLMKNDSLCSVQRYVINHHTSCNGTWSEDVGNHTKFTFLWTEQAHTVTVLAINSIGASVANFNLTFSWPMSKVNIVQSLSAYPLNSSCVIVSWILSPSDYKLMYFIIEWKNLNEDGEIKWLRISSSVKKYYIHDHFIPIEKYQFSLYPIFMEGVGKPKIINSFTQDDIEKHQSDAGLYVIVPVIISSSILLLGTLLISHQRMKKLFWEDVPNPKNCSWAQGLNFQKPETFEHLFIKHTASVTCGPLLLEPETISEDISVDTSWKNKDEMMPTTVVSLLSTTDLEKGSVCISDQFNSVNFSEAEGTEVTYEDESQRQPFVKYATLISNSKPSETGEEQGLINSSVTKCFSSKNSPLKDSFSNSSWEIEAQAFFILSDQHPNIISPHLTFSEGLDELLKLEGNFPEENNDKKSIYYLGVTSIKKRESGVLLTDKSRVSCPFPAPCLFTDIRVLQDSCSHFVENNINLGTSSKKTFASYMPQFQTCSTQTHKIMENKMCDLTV
Experiment: IL-1β and IL-1Ra levels in conditioned medium of human endometrial epithelial cells (ELISA)
Type: cell-based
Conditions: EEC, leptin 10 nM, 24 h; for effect on leptin-induced increase in IL-1Ra levels / effect on leptin-induced increase in IL-1β levels: LPA-2 30 μM
Description: Primary human endometrial cells (ESC and EEC) were cultured for 5-9 days in DMEM-F12 medium containing 5% fetal bovine serum (FBS), 5 μg/ml insulin, 1% amphopthericin B, 100 μg/ml streptomycin and 100 U/ml penicillin until they were 80% confluent. Two types of endometrial epithelial cell lines, HES (originally derived from a benign proliferative endometrium) and Ishikawa (human endometrial epithelial adenocarcinoma, ECACC 9832301, Wiltshire, England) were cultured under the same conditions described above. The cells were washed twice with 100 mM phosphate saline buffer (PBS), pH 7.2 and cultured for additional 2 days in the same medium but without FBS (basal medium). Cells were washed as described before and cultured in basal medium containing leptin (0, 3, 10 or 62 nM) or IL-1β (0.6, 3 and 10 nM).
The anti-OB-R antibody (10 and 20 μg/ml) and LPA-2, a specific inhibitor of OB-R (3, 120, 300 nM or 30 μM) were used to assess whether leptin-induced effects were regulated primarily by the OB-R. Non-specific species-matched IgGs to the OB-R antibody and a scrambled version of LPA-2 (LPA-2Sc) served as negative controls (Gonzalez and Leavis, Endocrine 21: 185-195 (2003)). Inhibitors of IL-1R were used (monoclonal antibody anti-IL-1R tl and IL-1Ra) to assess whether leptin activated IL-1 induced signaling pathways or just activated similar components responsible for LIF/LIF-R expression. Treatment with the cytokine, inhibitor or the two combined was implemented for 5, 15, 30 and 60 min, and 24 and 48 h. The cells were prepared for Western blot analysis. The conditioned media was collected, lyophilized and stored at −80° C. until analysis for LIF, IL-1β and IL-1Ra by ELISA could be performed. Duplicate wells were run for each treatment and the experiments repeated at least three times with different cell preparations.
Conditioned media from cells cultured under the experimental conditions described above were used to quantify the secretion of LIF, IL-1β and IL-1Ra by ELISA (Quantikine®, R&D Systems). The experiments were replicated three times and standards, controls, and samples were assayed in duplicate. Cytokine concentrations as determined by ELISA were within the range of the standard curve and were expressed in pg/ml/mg protein. The intra- and interassay coefficients of variation were between 5-8% and 8.5-10%, respectively. The lowest detectable concentration of each cytokine by ELISA was LIF (9 pg/ml), IL-1 (0.11 pg/ml) and IL-1Ra (15.6 pg/ml). These concentrations are similar to those reported by the manufacturer. LIF-ELISA is reported by the manufacturer to have a sensitivity of less than 8 pg/ml for both natural and recombinant human LIF and 100% specificity (no significant cross-reactivity or interference with a diversity of human and mouse cytokines and growth factors was observed). The performance characteristics for human IL-1β and IL-1Ra ELISAs reported are: 100% specificity, sensitivity 0.1 pg/ml and 14 pg/ml, respectively.

effect on leptin-induced increase in IL-1Ra levels | effect on leptin-induced increase in IL-1β levels | IL-1Ra levels after leptin | IL-1β levels after leptin | Substance
abrogated | abrogated |  |  | SRNVIQISNDLENLRDLLHVLAFSKS [LPA-2, 26 amino acid peptide, residues 70-95 of helix III of the human leptin molecule; leptin peptide antagonist]
not affected | not affected |  |  | VAEVLNRSDLIQRISFSLDLNNSKLH [LPA-2Sc, scrambled version of LPA-2, negative control, reference compound]
 |  | elevated levels | elevated levels | leptin: human recombinant leptin (R&D Systems), OB-R ligand used as stimulus
